Assay [1] concerns the target T1, biotin-labeled human ADM (human, not fully specified; biotin label (named human ADM-C-biotin in Example 1.4; position of the biotin not stated for the other lots)).
T1 construct: Synthetic peptide; also called human ADM-C-biotin; hADM-Biotin
T1 peptide: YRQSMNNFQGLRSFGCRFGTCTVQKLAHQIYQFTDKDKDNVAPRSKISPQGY
The assay can be described thus: ELISA of E. coli culture supernatant of phage library monoclones. A general note: In an ELISA, binding on a coated surface is turned into a signal by an enzyme label.

For assay [2], the target named is T2, 21 amino acid polypeptide at the N-terminus of human ADM (human).
T2 construct: Coated on the ELISA plate in the hybridoma screening; also called YY-21
T2 peptide: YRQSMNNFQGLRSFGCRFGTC
The assay can be described thus: ELISA, peptide coated at 1.0 ug/mL, hybridoma supernatant. How it is done:
(§1) YY-21 or YY-19 was diluted with PBS to 1.0 μg/mL, added to a 96-well plate (Corning, 9018), with 100 μL/well, and incubated at 4° C. overnight for coating. The ELISA plate was washed 3 times with a washing buffer (PBS+0.05% Tween 20) on an automatic plate washer the next day. 300 μL of a blocking buffer (PBS+0.05% Tween 20+1% BSA) was added to each well, and the plate was placed at room temperature for 1 h for blocking. The plate was then washed 3 times with the washing buffer on the automatic plate washer, and the hybridoma supernatant was added to each well of the ELISA plate. The plate was placed and incubated at room temperature for 1 h, and then washed 3 times according to the method described above. Goat Anti-mouse IgG Fc-HRP (Sigma, A0168) or Goat Anti-rat-IgG-HRP (Sigma, A5795) was diluted in 1:5000 with the blocking buffer, with 100 μL/well. The plate was placed and incubated at room temperature for 1 h. The plate was then washed 3 times according to the method described above. A TMB substrate solution was added with 100 μL/well and incubated at room temperature for 10 min, then 50 μL of 1.0 M hydrochloric acid was added to each well to terminate the reaction, and the plate was read by a microplate reader at OD₄₅₀ nm. […]

For assay [3], the target named is T3, 19 amino acid polypeptide at the N-terminus of mouse ADM (mouse).
T3 construct: Coated on the ELISA plate in the hybridoma screening; also called YY-19
T3 peptide: YRQSMNQGSRSNGCRFGTC
The description is as above. The protocol:
as §1

Assay [4] concerns the target T1, biotin-labeled human ADM. The assay can be described thus: BLI (Octet RED96e), biotinylated antigen on streptavidin sensor, antibody 100 nM, 1:1 fit. The protocol: (§2) The affinity of the candidate antibody for biotin-labeled human ADM (human ADM-C-biotin for short, the sequence of human ADM is set forth in SEQ ID NO: 4) and mouse ADM (mouse ADM-C-biotin for short, the sequence of mouse ADM is set forth in SEQ ID NO: 5) was determined by adopting Octet RED96e (Fortebio). The antigens and antibody were all diluted with 1× PBST, the concentration of the antigen used was 2 μg/mL, and the working concentration of the antibody used was 100 nM.
(§3) First, the sample was added to a 96-well plate (Greiner bio-one, 655209) with a system of 200 μL/well. Software parameters were then set, the plate temperature was set to 30° C., and the standard kinetic signal was collected at a frequency of 5.0 HZ. Next, a streptavidin sensor (Fortébio, Cat. No. 18-5020) was pre-wetted with 1× PBST for 10 min and then tested on a machine. Each cycle included the following steps: 1) immersing the sensor in a buffer for 180 s to stabilize the baseline; 2) immobilizing the antigen for 10 s, allowing the antigen to bind to the sensor, and controlling the binding amount of the antigen between 0.5 nm and 1.0 nm; 3) immersing the sensor in the buffer for 180 s; 4) binding the antigen to the antibody for the binding time of 180 s; and 5) dissociating the antigen and the antibody for 10 min.
(§4) The equilibrium dissociation constant (KD) of the antibody was calculated by measuring the association rate (Kon) and the dissociation rate (Koff) of the antigen-antibody in a 1:1 binding manner by adopting the Data Analysis 12.0 software from Fortebio.
A general note: In BLI a coated tip is dipped into the sample, and binding shifts an interference pattern.

The next assay deals with T4, biotin-labeled mouse ADM (mouse, not fully specified; biotin label (named mouse ADM-C-biotin in Example 1.4; position of the biotin not stated for the other lots)).
T4 construct: Synthetic peptide; also called mouse ADM-C-biotin; mADM-Biotin
T4 peptide: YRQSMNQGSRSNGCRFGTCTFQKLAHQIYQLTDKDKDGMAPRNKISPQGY
The assay is described as above. How it is done: as §2, §3, §4

B1: monoclone 1F12 (from the fully human single-chain phage antibody library) (scFv, V domains shown)
VH: QVQLVQSGAEVKKPGASVKVSCKASGYTFTSYGISWVRQAPGQGLEWMGWISAYNGNTNYAQKLQGRVTMTRDTSTSTAYMELRSLRSDDTAVYYCAREGRSGGSFDIWGQGTMVTVSS
VL: DIQMTQSPSSLSASVGDRVTITCRASQGISSYLAWYQQKPGKAPKLLIYDASNLETGVPSRFSGSGSGTDFTFTISSLQPEDIATYYCQQYDNLPLTFGGGTKVEIK
notes: Tested as E. coli culture supernatant of a clone of a single-chain library
As for B1, the binding result with biotin-labeled human ADM [1] is “binds”.

B2: hybridoma clone 40E12 (antibody, V domains shown)
VH: QIQLVQSGPELRKPGETVKISCKASGYAFTTFGMSWIKQAPGQGLKWMGWINTYSRVPKYTDDFKGRFAFSLEISATTAYLLINNLKNGDTATYFCARGYGGEGGLGFSGQGTTLTVSS
VL: DVLMTQTPFSLPVSLGDQASISCRSSQSIIDSDGNTYLEWYLQKPGQSPKLLIYKVSNRFSGVPDRFSGSGSGTDFTLRISRVEAEDLGVYYCFQGSHFPYTFAGGTKLELK
notes: Murine hybridoma antibody purified on protein A; also called candidate antibody 40E12
On to B2, for which the binding result in assay [2] is listed as “binds”. In addition, in assay [3], the binding result was “binds”. Moreover, in the assay with biotin-labeled human ADM [4], binding was put at a Kd of 0.314 nM, the koff amounted to 0.000109 s⁻¹ and the on-rate constant (kon) was 347000 M⁻¹ s⁻¹. In the assay with biotin-labeled mouse ADM, this molecule showed a Kd of 0.236 nM, an off-rate (koff) of 8.9e-05 s⁻¹ and a kon of 377000 M⁻¹ s⁻¹.

As a reminder, the Kd is a measure of binding affinity in units of concentration. Read a high Kd as lower affinity. A word on the koff: it is the first-order rate constant of dissociation. A higher koff goes with a short-lived complex. As usually defined, the kon is the rate constant with which the complex forms.

The record behind these values is US20260035456A1 (SHANGHAI JEYOU PHARMACEUTICAL, published 2026).
